Where no end group is shown, it is not given here. The star is where a group is joined. Biotin = O=C1N[C@H]2[C@H](CS[C@H]2CCCCC(=O)*)N1
T1: Peptide B (human PAR-2), unbiotinylated (Human)
T1 construct: also called Peptide B No Biotin
T1 peptide: SLIGKVDGTSHVTG

T2: Peptide A (human PAR-2), unbiotinylated (Human)
T2 construct: also called Peptide A No Biotin
T2 peptide: GTNRSSKGRSLIGKVDGT

T3: Peptide B (human PAR-2), C-terminal biotinylated (Human, not fully specified)
T3 construct: also called Peptide B C-Term
T3 peptide: SLIGKVDGTSHVTGGGGGS-biotin

T4: Peptide B (human PAR-2), N-terminal biotinylated (Human)
T4 construct: also called Peptide B N-Term
T4 peptide: Biotin-GGGGSSLIGKVDGTSHVTG

T5: Peptide C (human PAR-2), N-terminal biotinylated (Human)
T5 construct: also called Peptide C N-Term
T5 peptide: Biotin-GGGGSSLIGKV

T6: Peptide C (human PAR-2), C-terminal biotinylated (Human)
T6 construct: also called Peptide C C-Term
T6 peptide: SLIGKVGGGGS-biotin

T7: Peptide A (human PAR-2), N-terminal biotinylated (Human, N-terminal biotin via G4S linker)
T7 construct: also called Peptide A N-Term
T7 peptide: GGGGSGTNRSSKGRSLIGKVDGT


Experiments:
[1] = target: T1, Peptide B (human PAR-2), unbiotinylated; experiment: SPR, antibody captured
Method: (§1) Equilibrium dissociation constants (KD values) for antigen binding to selected purified PAR-2 antibodies were determined by surface kinetics using a real-time surface plasmon resonance biosensor assay. Antibody was captured on either a rabbit anti-mouse IgG polyclonal antibody (GE Healthcare, Piscataway, N.J.) surface or a goat anti-human IgG polyclonal antibody (Jackson Immuno Research Lab, West Grove, Pa.) surface created through direct amine chemical coupling to a BIACORE™ CM5 sensor chip to form a captured antibody surface. […] Antigen-antibody binding and dissociation were monitored in real time at room temperature. Kinetic analysis was performed to calculate KD and half-life of antigen/antibody complex dissociation (Table 10). For those antibodies where no T_{1/2} value is shown, steady state analysis was used to calculate the KD value. NB: no binding observed under current experimental conditions. ND: not determined.

[2] = target: T2, Peptide A (human PAR-2), unbiotinylated; experiment: SPR, antibody captured
Method: as §1

[3] = target: T3, Peptide B (human PAR-2), C-terminal …; experiment: SPR, peptide immobilized
Method: (§2) In another series of experiments, equilibrium dissociation constants (KD values) for purified antibody binding to selected biotinylated and unbiotinylated forms of PAR-2 peptides were determined by surface kinetics using a real-time surface plasmon resonance biosensor assay. Neutravidin (Pierce, Rockford, Ill.) was covalently coupled to the surface of a Biacore™ C1 chip or CM5 chip using amine coupling chemistry. Biotinylated (N-Term or C-Term) PAR-2 peptides (Peptides A and B) were immobilized on the surface via the high affinity binding interaction between biotin and the amine coupled Neutravidin.
(§3) In a first experiment using this format, varying concentrations (ranging from 5 to 100 μg/ml) of purified antibody were injected at a rate of 50 μl/min over a surface coated with immobilized peptide at low-density (<1RU) for 300 seconds. Antibody-peptide binding and dissociation was monitored in real time 25° C.

[4] = target: T8, Peptide A (human PAR-2), C-terminal biotinylated (Human, C-terminal biotin via G4S linker); experiment: SPR, peptide immobilized
T8 construct: also called Peptide A C-Term
Method: as §2, §3

full length human PAR-2 [5] = target: T9, full length human PAR-2 (human, UniProt P55085 26-397); experiment: cell-based or functional assay
T9 sequence (P55085 26-397 G138A limits assumed): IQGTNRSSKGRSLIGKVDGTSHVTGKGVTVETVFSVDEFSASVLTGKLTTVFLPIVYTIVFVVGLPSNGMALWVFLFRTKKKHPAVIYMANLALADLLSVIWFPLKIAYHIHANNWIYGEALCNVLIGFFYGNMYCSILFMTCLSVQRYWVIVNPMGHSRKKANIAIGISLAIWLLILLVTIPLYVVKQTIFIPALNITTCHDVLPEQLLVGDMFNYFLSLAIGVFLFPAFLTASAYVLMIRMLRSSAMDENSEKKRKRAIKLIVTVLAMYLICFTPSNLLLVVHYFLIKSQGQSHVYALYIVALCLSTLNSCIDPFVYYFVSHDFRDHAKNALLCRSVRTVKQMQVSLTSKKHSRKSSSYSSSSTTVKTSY

[6] = target: T3, Peptide B (human PAR-2), C-terminal …; experiment: peptide ELISA
Method: (§4) Anti-PAR-2 antibodies were tested for their ability to bind to the PAR-2 peptides. Various PAR-2 Peptides (Table 3) were coated onto 96-well plates at a concentration of 2 μg/ml and incubated overnight followed by blocking in a suitable blocking agent for one hour. […] Purified anti-PAR-2 antibodies were added to the plate coated with PAR-2 peptides to a final concentration ranging from 0.2 to 2.0 μg/ml and incubated for one hour at room temperature. Detection of bound antibodies was determined with Horse-Radish Peroxidase (HRP) conjugated anti-mouse or human IgG (Jackson Immuno Research Lab, West Grove, Pa.) and developed by standard colorimetric response using tetramethylbenzidine (TMB) substrate. Absorbance was read at OD₄₅₀ for 0.1 second.

[7] = target: T1, Peptide B (human PAR-2), unbiotinylated; experiment: peptide ELISA
Method: as §4

[8] = target: T4, Peptide B (human PAR-2), N-terminal …; experiment: peptide ELISA
Method: as §4

[9] = target: T5, Peptide C (human PAR-2), N-terminal …; experiment: peptide ELISA
Method: as §4

[10] = target: T6, Peptide C (human PAR-2), C-terminal …; experiment: peptide ELISA
Method: as §4

[11] = target: T7, Peptide A (human PAR-2), N-terminal …; experiment: peptide ELISA
Method: as §4

[12] = target: T2, Peptide A (human PAR-2), unbiotinylated; experiment: peptide ELISA
Method: as §4

[13] = target: T8, Peptide A (human PAR-2), C-terminal …; experiment: peptide ELISA
Method: as §4

full length human PAR-2 [14] = target: T9, full length human PAR-2; experiment: cell ELISA, 10 ug/ml antibody
Excerpt: HEK293 cells were transfected with an NF-κB-luciferase-IRES-eGFP reporter plasmid. […] A clonal cell line, named D9, having low background levels of luciferase activity and high levels of eGFP when induced with IL-1β was made by a series of successive sorts of cell populations using flow cytometry. The 293/D9 cell line was then separately transfected with human PAR-2 or mouse PAR-2 to create the stable cell lines 293/D9/h PAR-2rec and 293/D9/m PAR-2rec, respectively.
Binding of anti-PAR-2 antibodies to 293/D9/hPAR-2rec cells was determined by ELISA. 293/D9 and 293/D9/hPAR-2rec cells were plated at a density of 5×10⁴ cells/well in media and incubated overnight at 37° C. and 5% CO₂. Purified antibody was added to the cells to a final concentration of 10 μg/ml and incubated at room temperature for one hour. Cells were then fixed and washed before detection of bound antibodies with HRP conjugated anti-mouse IgG and developed by standard colorimetric response using TMB substrate. Absorbance was read at OD₄₅₀ for 0.1 second.

Binder | Kd [1] [nM] | T1/2 [1] [min] | Kd [2] [nM] | T1/2 [2] [min] | Kd [3] [nM] | T1/2 [3] [min] | Kd [4] [nM] | T1/2 [4] [min] | IC50, NF-kB-luciferase, 10 nM Human Trypsin 1 (full length human PAR-2 [5]) [nM] | IC50, NF-kB-luciferase, 10 nM Trypsin (full length human PAR-2 [5]) [nM] | IC50, NF-kB-luciferase, 250 nM Trypsin (full length human PAR-2 [5]) [nM] | OD450 [6] [od] | OD450 [7] [od] | OD450 [8] [od] | OD450 [9] [od] | OD450 [10] [od] | OD450 [11] [od] | OD450 [12] [od] | OD450 [13] [od] | A450 ratio (293/D9/hPAR-2rec to 293/D9 cells) (full length human PAR-2 [14]) | other results
H2M588N (antibody, V domains shown, chimeric: human variable, mouse constant domains) VH: EVQLLESGGGLVQPGGSLRLSCAASGFTFSSYAMTWVRQAPGKGLYWVSAISGGRGSAYYADSVKGRFTISRDNSKNTLYLQMNSLRAEDTAVYYCAKEGDSGYDLAYWGRGTLVTVSS VL: DIQMTQSPSSLSASVGDRVTITCRARQGISNNLAWLQQKPGKAPKSLIYAASSLQSGIPSKFSGSGSGTYFTLTISSLQPEDFATYYCQQYKSSPLTFGGGTKVEIK | 61.7 | 7.7 | 4.47 | 60.8 | 1.49 | 140 | 0.826 | 169 | 165 | 10.4 | 2.3 | 1 to 4 | 1 to 4 | 1 to 4 | 0 to 0.09 | 0 to 0.09 | 1 to 4 | 1 to 4 | 1 to 4 | 2.5 | IC50, NF-kB-luciferase, 20 nM Trypsin (full length human PAR-2 [5]): 26.8 nM; IC50, NF-kB-luciferase, 30 nM Trypsin (full length human PAR-2 [5]): 33 nM; IC50, NF-kB-luciferase, 75 nM Trypsin (full length human PAR-2 [5]): 5.7 nM; IC50, NF-kB-luciferase, 200 nM Factor Xa (full length human PAR-2 [5]): 45.3 nM; IC50, NF-kB-luciferase, 750 nM Lung Tryptase (full length human PAR-2 [5]): 1 nM
H2M591N (antibody, V domains shown, chimeric: human variable, mouse constant domains) VH: EVQLLESGGGLVQPGGSLRLSCATSGFTFSRYTMTWVRQAPGKGLFWVSGIGGSGGRAYYADSVKGRFTLSRDNSKNTLYLQMNSLRAEDTAVYYCAKEGDSGYDLDYWGRGTLVTVSS VL: DIQMTQYPSSLSASVGDRVTITCRARQGISNYLAWLQQKPGKAPKSLIYAASSLQRGVPSKFSGSGSGTDFTLTISSLQPEDSATYYCQQYKISPLTFGGGTKVEIK | 151 | 8.1 | 4.22 | 42.7 | 1.82 | 94 | 0.545 | 209 | 150 | 24.2 | 4.5 | 1 to 4 | 1 to 4 | 1 to 4 | 0 to 0.09 | 0 to 0.09 | 1 to 4 | 1 to 4 | 1 to 4 | 2.25 | IC50, NF-kB-luciferase, 20 nM Trypsin (full length human PAR-2 [5]): 122 nM; IC50, NF-kB-luciferase, 200 nM Factor Xa (full length human PAR-2 [5]): 51.5 nM; IC50, NF-kB-luciferase, 750 nM Lung Tryptase (full length human PAR-2 [5]): 88.1 nM

The remaining binders from weak to strong by Kd [1], led by results:

Kd [1] [nM] | T1/2 [1] [min] | Kd [2] [nM] | T1/2 [2] [min] | Kd [3] [nM] | T1/2 [3] [min] | Kd [4] [nM] | T1/2 [4] [min] | IC50, NF-kB-luciferase, 10 nM Human Trypsin 1 (full length human PAR-2 [5]) [nM] | IC50, NF-kB-luciferase, 10 nM Trypsin (full length human PAR-2 [5]) [nM] | IC50, NF-kB-luciferase, 250 nM Trypsin (full length human PAR-2 [5]) [nM] | OD450 [6] [od] | OD450 [7] [od] | OD450 [8] [od] | OD450 [9] [od] | OD450 [10] [od] | OD450 [11] [od] | OD450 [12] [od] | OD450 [13] [od] | A450 ratio (293/D9/hPAR-2rec to 293/D9 cells) (full length human PAR-2 [14]) | Binder | other results
128 | 7.3 | 3.75 | 51.3 | – | – | – | – | – | – | 6.3 | 1 to 4 | 1 to 4 | 1 to 4 | 0 to 0.09 | 0 to 0.09 | 1 to 4 | 1 to 4 | 1 to 4 | 2.03 | H2M589N (antibody, V domains shown, chimeric: human variable, mouse constant domains) VH: EVQLLESGGGLVQPGGSLRLSCATSGFTFSRYTMTWVRQAPGKGLFWVSGIGGSGGRAYYADSVKGRFTLSRDNSKNTLYLQMNSLRAEDTAVYYCAKEGDSGYDLDYWGRGTLVTVSS VL: DIQMTQYPSSLSASVGDRVTITCRARQGISNYLAWLQQKPGKAPKSLIYAASSLQRGVPSKFSGSGSGTDFTLTISSLQPEDSATYYCQQYKISPLTFGGGTKVEIK | IC50, NF-kB-luciferase, 75 nM Trypsin (full length human PAR-2 [5]): 3.7 nM
126 | 3.5 | 9.62 | 6.7 | 2.32 | 60 | 1.8 | 79 | 154 | 12.4 | 6.6 | 1 to 4 | 1 to 4 | 1 to 4 | 0 to 0.09 | 0 to 0.09 | 1 to 4 | 1 to 4 | 1 to 4 | 2.44 | H2M618N (antibody, V domains shown, chimeric: human variable, mouse constant domains) VH: EVQLLESGGGLVQPGGSLRLSCAASGFTFRSYTMTWVRQAPGKGLDWVSGITDSGAGTYYGDSVKGRFTISRDNSKNTLYLQMNSLRAEDTAVYYCVKEGDSGYDLDYWGQGTLVTVSS VL: DIQMTQSPSSLSASVGDRVTITCRASQGISTYLAWLQQKPGKAPKSLIYATSSLQSGVPSKFSGSRSGTDFTLTISSLQPEDFATYYCQQYKSSPLTFGGGTKVEIK | IC50, NF-kB-luciferase, 20 nM Trypsin (full length human PAR-2 [5]): 70 nM; IC50, NF-kB-luciferase, 75 nM Trypsin (full length human PAR-2 [5]): 7.8 nM; IC50, NF-kB-luciferase, 200 nM Factor Xa (full length human PAR-2 [5]): 54.2 nM; IC50, NF-kB-luciferase, 750 nM Lung Tryptase (full length human PAR-2 [5]): 7 nM

Source: US20110059095A1 (Regeneron, published 2011)
